Target: soluble full length KLK2 protein (human kallikrein-2 6-His protein) (human) (UniProt P20151)
Assay: SPR; antibody captured on a chip coated with anti-Fc antibody, soluble hK2 injected, 1:1 Langmuir fit

B1: KL2B30 Fab (KLCB80) (Fab, V domains shown)
VH: QVQLQESGPGLVKPSETLSLTCTVSGGSISSYYWSWIRQPPGKGLEWIGYIYYSGSTNYNPSLKSRVTISVDTSKNQFSLKLSSVTAADTAVYYCAGTTIFGVVTPNFYYGMDVWGQGTTVTVSS
VL: DIQMTQSPSFLSASVGDRVTITCRASQGISSYLAWYQQKPGKAPKFLIYAASTLQSGVPSRFSGSGSGTEFTLTISSLQPEDFATYYCQQLNSYPLTFGGGTKVEIKR
Kd: 460 pM
